How the values were obtained:
Test in all cases: SPOT array
[1] = target: T1, Boi1 SH3 (BOI1_YEAST), P38041
T1 chain: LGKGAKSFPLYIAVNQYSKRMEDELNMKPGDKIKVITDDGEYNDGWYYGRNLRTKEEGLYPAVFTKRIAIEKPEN

[2] = target: T2, Boi2 SH3 (BOI2_YEAST), P39969
T2 chain: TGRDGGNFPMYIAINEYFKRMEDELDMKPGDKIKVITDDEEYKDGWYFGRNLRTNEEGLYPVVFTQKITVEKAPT

[3] = target: T3, Rvs167 SH3 (RV167_YEAST), P39743
T3 chain: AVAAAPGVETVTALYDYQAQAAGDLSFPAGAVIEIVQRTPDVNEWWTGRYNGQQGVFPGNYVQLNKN

[4] = target: T4, Yfr024 SH3 (LSB3_YEAST), P43603
T4 chain: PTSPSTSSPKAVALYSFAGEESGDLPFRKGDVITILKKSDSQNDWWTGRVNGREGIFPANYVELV

[5] = target: T5, Yhr016c SH3 (YSC84_YEAST), P32793
T5 chain: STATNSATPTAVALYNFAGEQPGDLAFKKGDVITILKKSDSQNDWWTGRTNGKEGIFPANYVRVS

B1: YGR165W 32-45 (peptide)
chain: IAYPFYPFKKLGRQ
normalised SPOT signal, Boehringer light units (BLU); mean over the file's lines of this peptide [1]: 75.8 | normalised SPOT signal, Boehringer light units (BLU); mean over the file's lines of this peptide [2]: 32.7 | normalised SPOT signal, Boehringer light units (BLU); mean over the file's lines of this peptide [3]: 16.3 | normalised SPOT signal, Boehringer light units (BLU); mean over the file's lines of this peptide [4]: 813 | normalised SPOT signal, Boehringer light units (BLU); mean over the file's lines of this peptide [5]: 230

B2: YHR150W 496-509 (peptide)
chain: IFDPQDPYRRAQQF
normalised SPOT signal, Boehringer light units (BLU); mean over the file's lines of this peptide [1]: 53.2 | normalised SPOT signal, Boehringer light units (BLU); mean over the file's lines of this peptide [2]: 51.8 | normalised SPOT signal, Boehringer light units (BLU); mean over the file's lines of this peptide [3]: 52.4 | normalised SPOT signal, Boehringer light units (BLU); mean over the file's lines of this peptide [4]: 59.9 | normalised SPOT signal, Boehringer light units (BLU); mean over the file's lines of this peptide [5]: 316

B3: YMR280C 1394-1407 (peptide)
chain: HRGPRRPQKNRYNT
normalised SPOT signal, Boehringer light units (BLU); mean over the file's lines of this peptide [1]: 9.8 | normalised SPOT signal, Boehringer light units (BLU); mean over the file's lines of this peptide [2]: 61 | normalised SPOT signal, Boehringer light units (BLU); mean over the file's lines of this peptide [3]: 60.7 | normalised SPOT signal, Boehringer light units (BLU); mean over the file's lines of this peptide [4]: 1710 | normalised SPOT signal, Boehringer light units (BLU); mean over the file's lines of this peptide [5]: 161

B4: YDR432W 144-157 (peptide)
chain: IFGPFGPMKEVKIL
normalised SPOT signal, Boehringer light units (BLU); mean over the file's lines of this peptide [1]: 63.3 | normalised SPOT signal, Boehringer light units (BLU); mean over the file's lines of this peptide [2]: 23.4 | normalised SPOT signal, Boehringer light units (BLU); mean over the file's lines of this peptide [3]: 56.3 | normalised SPOT signal, Boehringer light units (BLU); mean over the file's lines of this peptide [4]: 195 | normalised SPOT signal, Boehringer light units (BLU); mean over the file's lines of this peptide [5]: 260

B5: YGL003C 171-184 (peptide)
chain: HSTPVTPRRLFTSQ
normalised SPOT signal, Boehringer light units (BLU); mean over the file's lines of this peptide [1]: 2290 | normalised SPOT signal, Boehringer light units (BLU); mean over the file's lines of this peptide [2]: 77.8 | normalised SPOT signal, Boehringer light units (BLU); mean over the file's lines of this peptide [3]: 282 | normalised SPOT signal, Boehringer light units (BLU); mean over the file's lines of this peptide [4]: 16700 | normalised SPOT signal, Boehringer light units (BLU); mean over the file's lines of this peptide [5]: 6510

B6: YAR008W 207-220 (peptide)
chain: IAYPGDPLRFHSHL
normalised SPOT signal, Boehringer light units (BLU); mean over the file's lines of this peptide [1]: 12 | normalised SPOT signal, Boehringer light units (BLU); mean over the file's lines of this peptide [2]: 143 | normalised SPOT signal, Boehringer light units (BLU); mean over the file's lines of this peptide [3]: 18.3 | normalised SPOT signal, Boehringer light units (BLU); mean over the file's lines of this peptide [4]: 93.2 | normalised SPOT signal, Boehringer light units (BLU); mean over the file's lines of this peptide [5]: 196

B7: YPR072W 415-428 (peptide)
chain: IFFPNEPIRFVYPY
normalised SPOT signal, Boehringer light units (BLU); mean over the file's lines of this peptide [1]: 30.1 | normalised SPOT signal, Boehringer light units (BLU); mean over the file's lines of this peptide [2]: 36 | normalised SPOT signal, Boehringer light units (BLU); mean over the file's lines of this peptide [3]: 65.5 | normalised SPOT signal, Boehringer light units (BLU); mean over the file's lines of this peptide [4]: 209 | normalised SPOT signal, Boehringer light units (BLU); mean over the file's lines of this peptide [5]: 238

B8: YNL163C 746-759 (peptide)
chain: HSEPAIPYRETFLS
normalised SPOT signal, Boehringer light units (BLU); mean over the file's lines of this peptide [1]: 83.3 | normalised SPOT signal, Boehringer light units (BLU); mean over the file's lines of this peptide [2]: 14.6 | normalised SPOT signal, Boehringer light units (BLU); mean over the file's lines of this peptide [3]: 35.1 | normalised SPOT signal, Boehringer light units (BLU); mean over the file's lines of this peptide [4]: 92.9 | normalised SPOT signal, Boehringer light units (BLU); mean over the file's lines of this peptide [5]: 634

B9: YIL150C 61-74 (peptide)
chain: IEVPQSPTKNRVKV
normalised SPOT signal, Boehringer light units (BLU); mean over the file's lines of this peptide [1]: 130 | normalised SPOT signal, Boehringer light units (BLU); mean over the file's lines of this peptide [2]: 19.2 | normalised SPOT signal, Boehringer light units (BLU); mean over the file's lines of this peptide [3]: 27.2 | normalised SPOT signal, Boehringer light units (BLU); mean over the file's lines of this peptide [4]: 176 | normalised SPOT signal, Boehringer light units (BLU); mean over the file's lines of this peptide [5]: 201

B10: YOR042W 147-160 (peptide)
chain: IELPTQPVRKNPEA
normalised SPOT signal, Boehringer light units (BLU); mean over the file's lines of this peptide [1]: 41.7 | normalised SPOT signal, Boehringer light units (BLU); mean over the file's lines of this peptide [2]: 20.1 | normalised SPOT signal, Boehringer light units (BLU); mean over the file's lines of this peptide [3]: 47 | normalised SPOT signal, Boehringer light units (BLU); mean over the file's lines of this peptide [4]: 550 | normalised SPOT signal, Boehringer light units (BLU); mean over the file's lines of this peptide [5]: 112

B11: YOR371C 699-712 (peptide)
chain: HTPPLNPSKKSASI
normalised SPOT signal, Boehringer light units (BLU); mean over the file's lines of this peptide [1]: 107 | normalised SPOT signal, Boehringer light units (BLU); mean over the file's lines of this peptide [2]: 82.2 | normalised SPOT signal, Boehringer light units (BLU); mean over the file's lines of this peptide [3]: 28.1 | normalised SPOT signal, Boehringer light units (BLU); mean over the file's lines of this peptide [4]: 15.3 | normalised SPOT signal, Boehringer light units (BLU); mean over the file's lines of this peptide [5]: 90.5

B12: YDL224C 170-183 (peptide)
chain: IFGPSFPFRSHIDV
normalised SPOT signal, Boehringer light units (BLU); mean over the file's lines of this peptide [1]: 138 | normalised SPOT signal, Boehringer light units (BLU); mean over the file's lines of this peptide [2]: 31.8 | normalised SPOT signal, Boehringer light units (BLU); mean over the file's lines of this peptide [3]: 391 | normalised SPOT signal, Boehringer light units (BLU); mean over the file's lines of this peptide [4]: 9630 | normalised SPOT signal, Boehringer light units (BLU); mean over the file's lines of this peptide [5]: 6610

B13: YGL025C 241-254 (peptide)
chain: IAAPKKPRKPRQTK
normalised SPOT signal, Boehringer light units (BLU); mean over the file's lines of this peptide [1]: 49.7 | normalised SPOT signal, Boehringer light units (BLU); mean over the file's lines of this peptide [2]: 53.7 | normalised SPOT signal, Boehringer light units (BLU); mean over the file's lines of this peptide [3]: 95.9 | normalised SPOT signal, Boehringer light units (BLU); mean over the file's lines of this peptide [4]: 3170 | normalised SPOT signal, Boehringer light units (BLU); mean over the file's lines of this peptide [5]: 126

B14: YLR259C 61-74 (peptide)
chain: IEQPFGPPKITKDG
normalised SPOT signal, Boehringer light units (BLU); mean over the file's lines of this peptide [1]: 119 | normalised SPOT signal, Boehringer light units (BLU); mean over the file's lines of this peptide [2]: 26.4 | normalised SPOT signal, Boehringer light units (BLU); mean over the file's lines of this peptide [3]: 28.2 | normalised SPOT signal, Boehringer light units (BLU); mean over the file's lines of this peptide [4]: 149 | normalised SPOT signal, Boehringer light units (BLU); mean over the file's lines of this peptide [5]: 51.4

B15: YNL091W 543-556 (peptide)
chain: IELPHDPHKHFHRD
normalised SPOT signal, Boehringer light units (BLU); mean over the file's lines of this peptide [1]: 126 | normalised SPOT signal, Boehringer light units (BLU); mean over the file's lines of this peptide [2]: 23.2 | normalised SPOT signal, Boehringer light units (BLU); mean over the file's lines of this peptide [3]: 20.5 | normalised SPOT signal, Boehringer light units (BLU); mean over the file's lines of this peptide [4]: 0 | normalised SPOT signal, Boehringer light units (BLU); mean over the file's lines of this peptide [5]: 77.2

B16: YBR276C 631-644 (peptide)
chain: IAHPVRPHRAITMT
normalised SPOT signal, Boehringer light units (BLU); mean over the file's lines of this peptide [1]: 3310 | normalised SPOT signal, Boehringer light units (BLU); mean over the file's lines of this peptide [2]: 145 | normalised SPOT signal, Boehringer light units (BLU); mean over the file's lines of this peptide [3]: 86.7 | normalised SPOT signal, Boehringer light units (BLU); mean over the file's lines of this peptide [4]: 2660 | normalised SPOT signal, Boehringer light units (BLU); mean over the file's lines of this peptide [5]: 225

B17: YCR065W 64-77 (peptide)
chain: HSSPIAPSKAKRQR
normalised SPOT signal, Boehringer light units (BLU); mean over the file's lines of this peptide [1]: 673 | normalised SPOT signal, Boehringer light units (BLU); mean over the file's lines of this peptide [2]: 170 | normalised SPOT signal, Boehringer light units (BLU); mean over the file's lines of this peptide [3]: 561 | normalised SPOT signal, Boehringer light units (BLU); mean over the file's lines of this peptide [4]: 1350 | normalised SPOT signal, Boehringer light units (BLU); mean over the file's lines of this peptide [5]: 142

Reference: paper PMC314469, “Protein Interaction Networks by Proteome Peptide Scanning” (PLoS Biology, 2004)
